Paper PMC9482650, “Quantitative fragmentomics allow affinity mapping of interactomes” (Nature Communications, 2022)

B1: MUC3A, MUC3B, Q02505;Q9H195 (peptide)
chain: KRPEMTSSSV
B2: CNTNAP2, Q9UHC6 (peptide)
chain: IDESKKEWLI
B3: NF2, P35240;P35240-1 (peptide)
chain: KSRVAFFEEL
B4: REELD1, A0A1B0GV85 (peptide)
chain: PSVGSKKTVL
B5: CRIPT, Q9P021 (peptide)
chain: DTKNYKQTSV
B6: MYPN, Q86TC9 (peptide)
chain: SRSVVESDEL

Columns and labels:
Assay in all cases: holdup assay
Design in all cases: key: below the threshold = too weak to quantify, mostly under pKd 3.1 to 4
Conditions in all cases: plain residues with an end cap or a label only (N-terminal biotin on a linker: ado-ado)
DLG4_1, P78352 = molecular target: DLG4_1, P78352
DLG4_1, P78352, sequence (P78352 62-152): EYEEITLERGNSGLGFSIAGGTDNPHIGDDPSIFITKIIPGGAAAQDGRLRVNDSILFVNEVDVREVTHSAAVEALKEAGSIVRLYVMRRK

Inadl_2, Q8NI35 = molecular target: Inadl_2, Q8NI35
Inadl_2, Q8NI35, sequence (Q8NI35 238-335): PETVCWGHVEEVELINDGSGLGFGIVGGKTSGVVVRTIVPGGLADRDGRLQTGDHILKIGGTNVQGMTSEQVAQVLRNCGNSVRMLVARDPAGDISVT

CARD11, Q9BXL7 = molecular target: T1, CARD11, Q9BXL7
T1 sequence (Q9BXL7 662-765, limits assumed, looked up): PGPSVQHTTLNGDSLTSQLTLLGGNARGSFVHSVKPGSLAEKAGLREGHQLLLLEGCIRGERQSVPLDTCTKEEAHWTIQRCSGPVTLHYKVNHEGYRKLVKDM

HTRA1, Q92743 = molecular target: HTRA1, Q92743
HTRA1, Q92743, sequence (Q92743 360-477): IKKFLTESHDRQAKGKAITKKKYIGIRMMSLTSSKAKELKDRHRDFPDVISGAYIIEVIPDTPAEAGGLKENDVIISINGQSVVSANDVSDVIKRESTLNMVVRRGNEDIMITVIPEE

APBA3_1, O96018 = molecular target: T2, APBA3_1, O96018
T2 sequence (O96018 389-490, limits assumed, looked up): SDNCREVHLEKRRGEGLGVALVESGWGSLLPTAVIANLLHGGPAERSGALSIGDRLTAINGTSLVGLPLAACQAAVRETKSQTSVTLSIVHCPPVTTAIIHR

NHERF2_2, Q15599 = molecular target: NHERF2_2, Q15599
NHERF2_2, Q15599, sequence (Q15599 142-238): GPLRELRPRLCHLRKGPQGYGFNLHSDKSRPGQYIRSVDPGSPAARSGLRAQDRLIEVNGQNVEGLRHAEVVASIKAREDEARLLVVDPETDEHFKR

LDB3, O75112 = molecular target: LDB3, O75112
LDB3, O75112, sequence (O75112 1-94): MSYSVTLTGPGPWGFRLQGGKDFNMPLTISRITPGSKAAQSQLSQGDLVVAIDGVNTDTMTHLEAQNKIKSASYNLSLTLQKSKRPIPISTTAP

GRIP2_7, Q9C0E4 = molecular target: GRIP2_7, Q9C0E4
GRIP2_7, Q9C0E4, sequence (Q9C0E4 934-1023): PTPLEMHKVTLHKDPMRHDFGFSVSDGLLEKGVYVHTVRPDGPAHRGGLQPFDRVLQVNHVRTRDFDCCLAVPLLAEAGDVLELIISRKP

MAGI2_2, Q86UL8 = molecular target: MAGI2_2, Q86UL8
MAGI2_2, Q86UL8, sequence (Q86UL8 410-522): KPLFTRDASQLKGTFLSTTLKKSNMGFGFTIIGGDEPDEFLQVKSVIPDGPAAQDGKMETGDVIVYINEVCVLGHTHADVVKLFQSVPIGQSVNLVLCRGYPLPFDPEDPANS

HTRA4, P83105 = molecular target: T3, HTRA4, P83105
T3 sequence (P83105 378-476, limits assumed, looked up): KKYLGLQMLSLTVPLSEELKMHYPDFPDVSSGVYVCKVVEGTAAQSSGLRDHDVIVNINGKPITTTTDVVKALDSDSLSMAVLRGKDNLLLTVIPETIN

GRIP1_3, Q9Y3R0 = molecular target: T4, GRIP1_3, Q9Y3R0
T4 sequence (Q9Y3R0 247-346, limits assumed, looked up): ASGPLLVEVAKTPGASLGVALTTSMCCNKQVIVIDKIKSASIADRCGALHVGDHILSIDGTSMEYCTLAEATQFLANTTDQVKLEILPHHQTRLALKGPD

Inadl_6, Q8NI35 = molecular target: Inadl_6, Q8NI35
Inadl_6, Q8NI35, sequence (Q8NI35 1058-1167): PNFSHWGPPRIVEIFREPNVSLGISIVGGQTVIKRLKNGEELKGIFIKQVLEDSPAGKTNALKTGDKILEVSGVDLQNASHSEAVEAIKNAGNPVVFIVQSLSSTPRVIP

GRIP2_4, Q9C0E4 = molecular target: GRIP2_4, Q9C0E4
GRIP2_4, Q9C0E4, sequence (Q9C0E4 446-548): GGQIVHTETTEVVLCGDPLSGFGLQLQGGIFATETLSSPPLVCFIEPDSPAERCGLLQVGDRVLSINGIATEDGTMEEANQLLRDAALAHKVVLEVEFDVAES

MAGI3_2, Q5TCQ9 = molecular target: MAGI3_2, Q5TCQ9
MAGI3_2, Q5TCQ9, sequence (Q5TCQ9 398-503): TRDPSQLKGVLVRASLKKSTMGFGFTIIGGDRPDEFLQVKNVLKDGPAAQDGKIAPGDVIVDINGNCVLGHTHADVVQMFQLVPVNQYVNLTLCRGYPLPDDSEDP

DLG2_2, Q15700 = molecular target: DLG2_2, Q15700
DLG2_2, Q15700, sequence (Q15700 189-283): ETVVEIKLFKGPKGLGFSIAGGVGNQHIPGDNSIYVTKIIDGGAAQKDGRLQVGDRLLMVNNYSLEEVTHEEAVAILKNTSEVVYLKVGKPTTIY

PARD3_3, Q8TEW0 = molecular target: PARD3_3, Q8TEW0
PARD3_3, Q8TEW0, sequence (Q8TEW0 582-685): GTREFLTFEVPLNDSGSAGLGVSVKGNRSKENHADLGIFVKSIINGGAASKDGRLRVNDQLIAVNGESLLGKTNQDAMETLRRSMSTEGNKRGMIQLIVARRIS

NHERF3_3, Q5T2W1 = molecular target: T5, NHERF3_3, Q5T2W1
T5 sequence (Q5T2W1 238-333, limits assumed, looked up): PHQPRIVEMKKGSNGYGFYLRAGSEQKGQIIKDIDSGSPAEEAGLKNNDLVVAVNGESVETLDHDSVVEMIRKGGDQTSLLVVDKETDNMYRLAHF

GRID2IP_1, A4D2P6 = molecular target: GRID2IP_1, A4D2P6
GRID2IP_1, A4D2P6, sequence (A4D2P6 1-87): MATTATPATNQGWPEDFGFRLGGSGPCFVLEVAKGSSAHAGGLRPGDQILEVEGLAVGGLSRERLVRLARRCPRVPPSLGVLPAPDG

SHANK1, Q9Y566 = molecular target: T6, SHANK1, Q9Y566
T6 sequence (Q9Y566 658-767, limits assumed, looked up): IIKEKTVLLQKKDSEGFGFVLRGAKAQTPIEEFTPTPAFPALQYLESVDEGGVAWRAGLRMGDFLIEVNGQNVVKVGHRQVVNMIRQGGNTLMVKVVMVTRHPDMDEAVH

DFNB31_1, Q9P202 = molecular target: T7, DFNB31_1, Q9P202
T7 sequence (Q9P202 135-233, limits assumed, looked up): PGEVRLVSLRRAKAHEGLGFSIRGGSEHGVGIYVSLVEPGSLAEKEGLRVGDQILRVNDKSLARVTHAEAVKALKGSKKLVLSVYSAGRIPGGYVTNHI

GRASP, Q7Z6J2 = molecular target: GRASP, Q7Z6J2
GRASP, Q7Z6J2, sequence (Q7Z6J2 96-193): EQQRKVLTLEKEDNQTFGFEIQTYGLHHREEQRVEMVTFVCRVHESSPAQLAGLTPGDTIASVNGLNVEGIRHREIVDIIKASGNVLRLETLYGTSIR

SNX27, Q96L92 = molecular target: SNX27, Q96L92
MAGI2_5, Q86UL8 = molecular target: MAGI2_5, Q86UL8
MAGI2_5, Q86UL8, sequence (Q86UL8 915-1017): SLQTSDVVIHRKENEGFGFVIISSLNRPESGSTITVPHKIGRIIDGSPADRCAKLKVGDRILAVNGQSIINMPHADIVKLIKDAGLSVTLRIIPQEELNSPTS

LIN7C, Q9NUP9 = molecular target: T8, LIN7C, Q9NUP9
T8 sequence (Q9NUP9 88-185, limits assumed, looked up): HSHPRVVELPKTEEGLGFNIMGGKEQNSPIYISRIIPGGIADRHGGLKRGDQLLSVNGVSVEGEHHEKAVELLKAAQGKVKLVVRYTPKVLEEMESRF

NHERF4_4, Q86UT5 = molecular target: NHERF4_4, Q86UT5
NHERF4_4, Q86UT5, sequence (Q86UT5 464-550): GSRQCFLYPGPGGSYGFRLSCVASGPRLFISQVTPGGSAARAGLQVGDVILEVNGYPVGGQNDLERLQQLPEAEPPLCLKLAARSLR

FRMPD2_2, Q68DX3 = molecular target: FRMPD2_2, Q68DX3
FRMPD2_2, Q68DX3, sequence (Q68DX3 944-1038): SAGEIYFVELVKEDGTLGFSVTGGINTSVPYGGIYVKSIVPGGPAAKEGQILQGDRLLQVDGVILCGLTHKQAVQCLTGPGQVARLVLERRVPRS

LIMK2, P53671 = molecular target: LIMK2, P53671
LIMK2, P53671, sequence (P53671 143-248): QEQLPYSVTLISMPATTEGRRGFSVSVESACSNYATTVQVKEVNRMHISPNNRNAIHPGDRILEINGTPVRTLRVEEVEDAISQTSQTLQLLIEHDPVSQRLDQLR

RAPGEF6, Q8TEU7 = molecular target: T9, RAPGEF6, Q8TEU7
T9 sequence (Q8TEU7 525-625, limits assumed, looked up): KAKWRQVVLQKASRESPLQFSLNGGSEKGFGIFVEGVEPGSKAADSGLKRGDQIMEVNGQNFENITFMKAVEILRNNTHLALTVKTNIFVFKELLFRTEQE

Binder	pKd (DLG4_1, P78352)	pKd (Inadl_2, Q8NI35)	pKd (CARD11, Q9BXL7)	pKd (HTRA1, Q92743)	pKd (APBA3_1, O96018)	pKd (NHERF2_2, Q15599)	pKd (LDB3, O75112)	pKd (GRIP2_7, Q9C0E4)	pKd (MAGI2_2, Q86UL8)	pKd (HTRA4, P83105)	pKd (GRIP1_3, Q9Y3R0)	pKd (Inadl_6, Q8NI35)	pKd (GRIP2_4, Q9C0E4)	pKd (MAGI3_2, Q5TCQ9)	pKd (DLG2_2, Q15700)	pKd (PARD3_3, Q8TEW0)	pKd (NHERF3_3, Q5T2W1)	pKd (GRID2IP_1, A4D2P6)	pKd (SHANK1, Q9Y566)	pKd (GRASP, Q7Z6J2)	other results
B1	below the threshold	below the threshold	1.75	below the threshold	below the threshold	below the threshold	below the threshold	below the threshold	3.65	below the threshold	below the threshold	below the threshold	below the threshold	3.86	3.54	below the threshold	below the threshold	below the threshold	3.92	–	–
B2	below the threshold	4.67	below the threshold	5.31	below the threshold	below the threshold	below the threshold	4.45	3.78	below the threshold	below the threshold	below the threshold	below the threshold	4.06	below the threshold	5.28	below the threshold	below the threshold	below the threshold	below the threshold	pKd (DFNB31_1, Q9P202): below the threshold; pKd (SNX27, Q96L92): below the threshold; pKd (MAGI2_5, Q86UL8): below the threshold; pKd (LIN7C, Q9NUP9): below the threshold; pKd (NHERF4_4, Q86UT5): below the threshold; pKd (FRMPD2_2, Q68DX3): below the threshold; pKd (LIMK2, P53671): below the threshold; pKd (RAPGEF6, Q8TEU7): below the threshold
B3	–	below the threshold	below the threshold	4.51	below the threshold	–	–	below the threshold	below the threshold	4.4	below the threshold	–	–	below the threshold	–	–	below the threshold	below the threshold	below the threshold	4.08	pKd (MAGI2_5, Q86UL8): below the threshold; pKd (LIN7C, Q9NUP9): below the threshold; pKd (NHERF4_4, Q86UT5): below the threshold; pKd (FRMPD2_2, Q68DX3): below the threshold; pKd (LIMK2, P53671): below the threshold; pKd (RAPGEF6, Q8TEU7): below the threshold
B4	below the threshold	below the threshold	below the threshold	3.55	below the threshold	3.68	below the threshold	below the threshold	below the threshold	3.91	below the threshold	below the threshold	below the threshold	3.51	below the threshold	below the threshold	below the threshold	below the threshold	3.93	4.43	pKd (DFNB31_1, Q9P202): below the threshold; pKd (SNX27, Q96L92): 3.71; pKd (MAGI2_5, Q86UL8): below the threshold; pKd (LIN7C, Q9NUP9): below the threshold; pKd (NHERF4_4, Q86UT5): below the threshold; pKd (FRMPD2_2, Q68DX3): below the threshold; pKd (LIMK2, P53671): below the threshold; pKd (RAPGEF6, Q8TEU7): below the threshold
B5	4.37	below the threshold	below the threshold	below the threshold	below the threshold	3.73	below the threshold	below the threshold	4.55	3.95	below the threshold	below the threshold	below the threshold	4.72	4.71	below the threshold	below the threshold	below the threshold	below the threshold	4.11	pKd (DFNB31_1, Q9P202): 4.32; pKd (SNX27, Q96L92): 5.33; pKd (MAGI2_5, Q86UL8): 4.26; pKd (LIN7C, Q9NUP9): 3.5; pKd (NHERF4_4, Q86UT5): below the threshold; pKd (FRMPD2_2, Q68DX3): below the threshold; pKd (LIMK2, P53671): below the threshold; pKd (RAPGEF6, Q8TEU7): below the threshold
B6	below the threshold	below the threshold	below the threshold	3.69	below the threshold	3.86	5.06	below the threshold	below the threshold	below the threshold	below the threshold	below the threshold	below the threshold	below the threshold	below the threshold	below the threshold	below the threshold	below the threshold	below the threshold	4.14	pKd (DFNB31_1, Q9P202): below the threshold; pKd (SNX27, Q96L92): 4.17; pKd (MAGI2_5, Q86UL8): 3.95; pKd (LIN7C, Q9NUP9): below the threshold; pKd (NHERF4_4, Q86UT5): below the threshold; pKd (FRMPD2_2, Q68DX3): below the threshold; pKd (LIMK2, P53671): below the threshold; pKd (RAPGEF6, Q8TEU7): below the threshold
